How the values were obtained:
Aβ1-40 monomer = Aβ1-40 monomer (UniProt P05067); assay: inhibition ELISA: antibody at a fixed concentration pre-incubated with titrated Aβ1-40 monomer in solution, then on an AβpE3-40 coat; the x axis is the Aβ1-40 concentration
AβpE11-40 monomer = AβpE11-40 monomer (UniProt P05067); assay: inhibition ELISA: antibody at a fixed concentration pre-incubated with titrated AβpE11-40 monomer in solution, then on an AβpE3-40 coat; the x axis is the AβpE11-40 concentration
Chain of AβpE11-40 monomer (P05067 682-711): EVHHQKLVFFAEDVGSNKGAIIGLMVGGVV

Chain of Aβ1-40 monomer (P05067 672-711): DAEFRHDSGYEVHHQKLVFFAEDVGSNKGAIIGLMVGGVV

4G8 (antibody) gave an IC50 (read off the curve) (Aβ1-40 monomer) of 0.02 µM and an IC50 (read off the curve) (AβpE11-40 monomer) of 0.02 µM.
